Reference: publication doi:10.1101/2024.08.25.607996 (2024)
Several values for one entry are separate records, joined by “and”; a condition that tells them apart may be missing. Identical values can stand only once.

What was measured:
[1] = target: FCoV-23 S domain B (receptor-binding domain), residues 529-677, avi- and His-tagged (FCoV-23 (feline coronavirus)); assay: BLI
[2] = target: T1, CCoV-HuPn-2018 S domain B (receptor-binding domain), residues 523-671, avi- and His-tagged (CCoV-HuPn-2018 (canine coronavirus)); assay: BLI
T1 chain: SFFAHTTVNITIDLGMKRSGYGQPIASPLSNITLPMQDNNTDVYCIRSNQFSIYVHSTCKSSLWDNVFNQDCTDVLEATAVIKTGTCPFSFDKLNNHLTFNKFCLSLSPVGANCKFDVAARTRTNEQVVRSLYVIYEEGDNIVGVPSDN

B1: canine APN-Fc ectodomain (dimeric) (Fc fusion)
chain: LAQSKPWNHYRLPKTLIPSSYNVTLRPYLTPNSNGLYTFKGSSTVRFTCKESTSMIIIHSKKLNYTNIQGQRVALRGVGGSQAPAIDRTELVEVTEYLVVHLREPLQVNSQYEMDSKFEGELADDLAGFYRSEYTENGVKKVLATTQMQAADARKSFPCFDEPAMKATFNITLIHPSNLVALSNMLPRGPSVPFTEEPNWNVTEFETTPIMSTYLLAYIVSEFKNVQENTPSNVLIRIWARPSAMDQGHGNYALRVTGPILDFFSRHYDTPYPLNKSDQIALPDFNAGAMENWGLVTYRESALLYDPQSSSIGNKERVVTVIAHELAHQWFGNLVTLEWWNDLWLNEGFASYVEYLGADYAEPTWNLKDLIVLNEVYRVMAVDALASSHPLSSPASEVNTPAQISEVFDSISYSKGASVLRMLSSFLTEDLFKKGVASYLHTFAYQNTIYLDLWNHLQWALGNQTAINLPYTVNAIMDRWILQMGFPVVTVDTTTGTLSQKHFLLDPQSNVTRPSKFNYLWIIPISSVKSGTQQAHYWMPDNAKVQNDLFKTTGDEWVLLNLNVTGYYLVNYDQNNWKKIHTQLQTDLSVIPVINRAQVIHDTFDLASAQIVPVTLALNSTLFLNQETEYMPWEAALSSLSYFKLMFDRSEVYGPMKNYLRKQVTPLFNHFEKITQNWTDHPQTLTEQYNEINAVSTACTYGVPKCKDLVSTLFAEWRKNPQNNPIYPNLRSTVYCNAIAQGGEEEWNFVWEQFRNTSLVNEADKLRSALACSTQVWILNRYLSYTLNPEFIRKQDVISTLSSIASNVIGQSLAWDFIQSNWKKLFEDYGTGSFSFSNLIQAVTRRFSTEFELQQLEQFKANNMDTGFGSGTRALEQALEKTKANIKWVKENKEAVLQWFRENSQ
- Kd [1]: 1.2 nM
- koff [1]: 0.00019 s⁻¹ and 0.00018 s⁻¹
- Kd [2]: 2.6 nM

B2: feline APN-Fc ectodomain (dimeric) (Fc fusion)
chain: DQSKPWNVYRLPKTLIPDSYNVTLRPYLTPNNKGLYVFTGTNIVRFTCKESTNIVIIHSKRLNYTSHQGHMVALSGVGGFHPQPVIVRTELVELTEYLVVHLQEPLVAGRQYEMNSEFQGELADDLAGFYRSEYMENGVKKVLATTHMQATEARKSFPCFDEPAMKATFNITIIHPNNLVALSNMLPRGPSVPFGEDPTWKVTEFETTPIMSTYLLAYIVSEFSYVETRAPSGVLIRIWARPSAINQGHGDYALKVTGPILDFFSQHYDTPYPLNKSDQIALPDFNAGAMENWGLVTYRESALLYDRQSSSSGNQERVVTVIAHELAHQWFGNLVTLEWWNDLWLNEGFASYVEYLGADFAEPTWNLKDLMVLNDVYRVMAVDALASSHPLSTPASEINTPAQISEVFDSISYSKGASVLRMLSNFLTEDLFKMGIASYLHTYKYGNTIYLNLWEHLQQVVDKQPTIKLPDTVSAIMDRWILQMGFPVITVDTQTGTISQQHFLLDPQSVVTRPSQFNYLWIVPISSVRSGSPQAHYWLPGVEKAQNDLFKTTANDWVLLNLNVTGYYLVNYDNENWKKIQTQLQTDLSVIPVINRAQVIHDAFNLASAQKVPVTLALNNTLFLIQETEYMPWQAALSSLSYFKLMFDRSEVYGPMKRYLKKQVTPLFNHFERVTKNWTDHPQTLMDQYSEINAVSTACSYGVPECEKLAATLFAQWKKNPQNNPIHPNLRSTVYCNAIAQGGEEEWNFVWEQFLKAELVNEADKLRGALACSNQVWILNRFLSYTLDPNLIRKQDVTSTLSSISSNVVGQTLVWDFVQSNWKKLFQDYGTGSFSFSNLIQAVTRRFSTEFELQQLEQFKKNNMDTGFGSATRALEQALEKTKANLKWVKENKDVVLRWFTENS
- Kd [1]: 10 nM
- koff [1]: 0.0013 s⁻¹ and 0.0014 s⁻¹
- Kd [2]: 28 nM
